Source: patent publication US20240158457A1 (MEDIKINE, published 2024)
“And” between values parts separate entries of the source, which are not always exact repeats. Equal values may be shown once. Read-outs that look alike come from different tables or passages of the source. Where no end group is shown, it is not given here.

B3: IL-18 Binding Protein (IL-18BP) Fc fusion (Fc fusion, not shown: a dimerising Fc or GST)
chain: TPVSQTTTAATASVRSTKDPCPSQPPVFPAAKQCPALEVTWPEVEVPLNGTLSLSCVACSRFPNFSILYWLGNGSFIEHLPGRLWEGSTSRERGSTGTQLCKALVLEQLTPALHSTNFSCVLVDPEQVVQRHVVLAQLWAGLRATLPPTQEALPSSHSSPQQQG

What was measured:
[1] = molecular target: T1, human IL-18 receptor (alpha and beta subunits) on HEK-BLUE IL-18 reporter cells (human, UniProt Q13478 19-541; O95256 20-599); assay: cell-based or functional assay
T1 sequence (looked up) 1: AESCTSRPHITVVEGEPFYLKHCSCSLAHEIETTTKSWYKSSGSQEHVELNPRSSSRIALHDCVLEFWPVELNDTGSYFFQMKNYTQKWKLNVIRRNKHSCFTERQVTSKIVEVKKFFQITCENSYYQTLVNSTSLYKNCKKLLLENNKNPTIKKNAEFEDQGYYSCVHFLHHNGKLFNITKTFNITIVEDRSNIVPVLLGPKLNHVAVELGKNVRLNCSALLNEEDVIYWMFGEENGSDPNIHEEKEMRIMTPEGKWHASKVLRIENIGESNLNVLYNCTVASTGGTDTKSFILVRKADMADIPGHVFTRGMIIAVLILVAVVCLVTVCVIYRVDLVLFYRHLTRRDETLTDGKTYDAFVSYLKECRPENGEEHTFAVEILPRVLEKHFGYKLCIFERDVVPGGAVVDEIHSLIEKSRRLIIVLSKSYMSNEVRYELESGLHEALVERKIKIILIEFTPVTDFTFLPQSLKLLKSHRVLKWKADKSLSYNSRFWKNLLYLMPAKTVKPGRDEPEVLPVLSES
T1 sequence (looked up) 2: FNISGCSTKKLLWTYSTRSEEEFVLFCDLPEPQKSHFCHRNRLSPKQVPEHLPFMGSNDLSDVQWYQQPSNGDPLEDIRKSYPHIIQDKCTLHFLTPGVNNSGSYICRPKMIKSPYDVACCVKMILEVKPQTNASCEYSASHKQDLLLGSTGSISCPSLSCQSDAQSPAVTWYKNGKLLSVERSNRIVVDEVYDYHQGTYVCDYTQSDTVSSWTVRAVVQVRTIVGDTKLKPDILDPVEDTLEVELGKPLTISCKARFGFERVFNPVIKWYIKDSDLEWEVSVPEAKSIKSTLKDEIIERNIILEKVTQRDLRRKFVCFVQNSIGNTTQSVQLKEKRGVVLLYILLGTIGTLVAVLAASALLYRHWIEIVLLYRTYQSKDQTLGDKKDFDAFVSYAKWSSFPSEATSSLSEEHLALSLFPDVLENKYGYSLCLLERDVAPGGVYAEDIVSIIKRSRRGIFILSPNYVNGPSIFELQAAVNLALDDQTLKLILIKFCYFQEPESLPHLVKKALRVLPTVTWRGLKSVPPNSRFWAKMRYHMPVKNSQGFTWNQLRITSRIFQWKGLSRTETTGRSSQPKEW

[2] = molecular target: B3; assay: direct binding ELISA; biotinylated peptide on NeutrAvidin, IL-18BP Fc titrated, anti-human IgG Fc-HRP
Experimental: Binding of synthetic monomer peptides to IL-18 Binding Protein (IL-18BP) was measured using a direct binding ELISA. Briefly, 96-well ELISA plates were coated with NeutrAvidin (NA) at 5 μg per well in PBS, washed, then blocked with PBS containing 1% BSA. Wells were washed and representative peptides, synthesized with a C-terminal biotin were diluted to 300 nM in assay buffer and added to the NA coated wells. Wells were washed and serial dilutions starting at 100 nM of IL-18R subunits, IL-18BP from either of two sources (Acro #ILP-H5253 and R&D #119-BP), and control IgG Fc fusions) were added to the wells and incubated for 1 hr at 4° C. Then plates were washed and goat anti-human IgG Fc-HRP (Southern Biotech #2048-05) detection antibody was added for 1 hr. Wells were developed with TMB for 5-15 min and the enzyme reaction was stopped with a H₂SO₄ solution.

[3] = molecular target: T2, Human recombinant IL-18 (R&D Systems #9124-IL-050/CF) (human, UniProt Q14116 1-193); assay: cell-based or functional assay
T2 sequence: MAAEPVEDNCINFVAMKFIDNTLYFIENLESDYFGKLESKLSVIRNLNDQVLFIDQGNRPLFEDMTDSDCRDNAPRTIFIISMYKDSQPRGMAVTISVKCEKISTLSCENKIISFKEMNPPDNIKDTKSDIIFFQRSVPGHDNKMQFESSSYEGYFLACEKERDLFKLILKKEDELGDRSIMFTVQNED

[4] = molecular target: T1, human IL-18 receptor (alpha and beta …); assay: cell-based or functional assay; remark: listed apart in the source

B1: Dimer 2 (designed binder)
chain: GGCPNWLSDHLSEIWCPAPAPAPAPAPAPAPAFFECFYSPGHEWCIPSGG
modifications: not fully specified; cysteine pairing not given here; also: linker of formula V (drawing, may hold non-peptide parts) between beta and alpha moieties
With B1 the “efficacy (% maximum signal (Emax) vs. IL-18 in reporter assay)” value [1] was 34% and the “potency (EC50), HEK-BLUE IL-18 reporter assay (SEAP)” value (from here on “potency (EC50)”) [1] was > 100 nM and < 300 nM.

B2: Dimer 1 (designed binder)
chain: GGCPNWLSDHLSEIWCPAPAPAPAPAPAPAPAICWVPFHYLDELMCTGG
modifications: not fully specified; cysteine pairing not given here; also: linker of formula V (drawing, may hold non-peptide parts) between beta and alpha moieties
For B2, the “efficacy (% maximum signal (Emax) vs. IL-18 in reporter assay)” value [1] was 17% and the “potency (EC50)” value [1] was < 1000 nM.

GGICWVPFHYLDELMCTGG-biotin (cysteine pairing not given here, also called bn4D07) [biotinylated 4D07]: no binding (tested: 100 nM) [2].

With B3 the “IC50, inhibition of IL-18 bioactivity in HEK-BLUE IL-18 reporter assay” value [3] was ~1 nM.

GGCPNWLSDHLSEIWCGG-biotin (cysteine pairing not given here) [C-terminally biotinylated form of peptide 5C09]: no binding (tested: 100 nM) [2].

B4: biotinylated alpha synthetic F1a Consensus Construct (peptide)
peptide: GGELCWRPFSFVDCEEGG-biotin
modifications: cysteine pairing not given here
notes: also called bn-alpha synthetic F1a Consensus Construct; alpha synthetic F1 peptide, C-terminal biotinylated form
B4: no binding (tested: 100 nM) [2].

GGFFECFYSPGHEWCIPSGG-biotin (cysteine pairing not given here, also called bn7C06) [biotinylated 7C06]: no binding (tested: 100 nM) [2].

B5: Dimer 3 (designed binder)
chain: GGLCWYFGGTVRGPCLPAPAPAPAPAPAPAPAFFECFYSPGHEWCIPSGG
modifications: not fully specified; cysteine pairing not given here; also: linker of formula V (drawing, may hold non-peptide parts) between beta and alpha moieties
B5 was tested, and the “potency (EC50)” value [4] was < 10 nM, the “efficacy (% maximum signal (Emax) vs. IL-18 in reporter assay)” value [1] was 36% and the “potency (EC50)” value [1] was < 30 nM.

B6: biotinylated beta family 2 synthetic construct (peptide)
peptide: GGLCWYFGGTVRGPCLGG-biotin
modifications: cysteine pairing not given here
notes: also called bn-beta family 2 synthetic construct
B6: no binding (tested: 100 nM) [2].
